Assay results: article PMC5762833, “Direct Molecular Fishing of New Protein Partners for Human Thromboxane Synthase” (Acta Naturae, 2017)

B1: aldosterone synthase (CYP11B2) (enzyme, UniProt P19099 25-503, looked up)
chain: GTRAARAPRTVLPFEAMPQHPGNRWLRLLQIWREQGYEHLHLEMHQTFQELGPIFRYNLGGPRMVCVMLPEDVEKLQQVDSLHPCRMILEPWVAYRQHRGHKCGVFLLNGPEWRFNRLRLNPDVLSPKAVQRFLPMVDAVARDFSQALKKKVLQNARGSLTLDVQPSIFHYTIEASNLALFGERLGLVGHSPSSASLNFLHALEVMFKSTVQLMFMPRSLSRWISPKVWKEHFEAWDCIFQYGDNCIQKIYQELAFNRPQHYTGIVAELLLKAELSLEAIKANSMELTAGSVDTTAFPLLMTLFELARNPDVQQILRQESLAAAASISEHPQKATTELPLLRAALKETLRLYPVGLFLERVVSSDLVLQNYHIPAGTLVQVFLYSLGRNAALFPRPERYNPQRWLDIRGSGRNFHHVPFGFGMRQCLGRRLAEAEMLLLLHHVLKHFLVETLTQEDIKMVYSFILRPGTSPLLTFRAIN
notes: aldosterone synthase (CYP11B2), mitochondrial cytochrome P450, recombinant
B2: 4-nitrophenol-2-hydroxylase (CYP2E1), recombinant (enzyme, UniProt P05181 1-493, looked up)
chain: MSALGVTVALLVWAAFLLLVSMWRQVHSSWNLPPGPFPLPIIGNLFQLELKNIPKSFTRLAQRFGPVFTLYVGSQRMVVMHGYKAVKEALLDYKDEFSGRGDLPAFHAHRDRGIIFNNGPTWKDIRRFSLTTLRNYGMGKQGNESRIQREAHFLLEALRKTQGQPFDPTFLIGCAPCNVIADILFRKHFDYNDEKFLRLMYLFNENFHLLSTPWLQLYNNFPSFLHYLPGSHRKVIKNVAEVKEYVSERVKEHHQSLDPNCPRDLTDCLLVEMEKEKHSAERLYTMDGITVTVADLFFAGTETTSTTLRYGLLILMKYPEIEEKLHEEIDRVIGPSRIPAIKDRQEMPYMDAVVHEIQRFITLVPSNLPHEATRDTIFRGYLIPKGTVVVPTLDSVLYDNQEFPDPEKFKPEHFLNENGKFKYSDYFKPFSTGKRVCAGEGLARMELFLLLCAILQHFNLKPLVDPKDIDLSPIHIGFGCIPPRYKLCVIPRS
notes: cytochrome P450 2E1, recombinant; also called cytochrome P450 2E1

Key:
[1] = target: T1, Human thromboxane synthase (TBXAS1) (human, UniProt P24557 1-533); assay: SPR; Biacore 3000; TBXAS1 amine-coupled to a CM5 chip (about 7,500 RU); analytes 50 nM to 5 μM injected for 10 min at 5 μL/min; control channel without protein; conditions: both partners purified
T1 construct: thromboxane synthase (TBXAS1, CYP5A1), human, recombinant; Covalently immobilised on CNBr-Sepharose 4B (fishing) or on a CM5 chip (SPR); also used as analyte; also called CYP5A1
T1 sequence (looked up): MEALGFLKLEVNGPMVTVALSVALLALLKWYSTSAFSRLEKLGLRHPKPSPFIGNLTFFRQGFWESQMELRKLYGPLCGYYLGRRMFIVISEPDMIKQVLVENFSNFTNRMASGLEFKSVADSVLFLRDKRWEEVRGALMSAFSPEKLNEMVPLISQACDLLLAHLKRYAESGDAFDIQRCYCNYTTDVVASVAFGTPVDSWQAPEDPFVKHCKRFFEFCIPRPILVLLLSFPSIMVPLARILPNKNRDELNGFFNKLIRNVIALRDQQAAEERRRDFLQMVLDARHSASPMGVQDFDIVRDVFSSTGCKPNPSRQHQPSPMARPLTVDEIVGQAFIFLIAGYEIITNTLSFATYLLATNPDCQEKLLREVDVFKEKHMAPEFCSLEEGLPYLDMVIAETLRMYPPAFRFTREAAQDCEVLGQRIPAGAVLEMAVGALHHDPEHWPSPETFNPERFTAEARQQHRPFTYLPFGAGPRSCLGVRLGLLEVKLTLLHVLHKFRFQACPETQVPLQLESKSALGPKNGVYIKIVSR

[2] = target: T1, Human thromboxane synthase (TBXAS1); assay: SPR; as a2, with isatin added to the analyte samples at a final concentration of 100 μM and incubated for 15 min; conditions: both partners purified

| Binder | Kd [1] [nM] | fold decrease in koff with 100 μM isatin against no isatin [2] [fold] | fold increase in affinity with 100 μM isatin against no isatin [2] [fold] | fold increase in kon with 100 μM isatin against no isatin [2] [fold] | fold difference of koff against TBXAS1•CYP11B2 (CYP2E1 the slower) [1] [fold] | fold difference of kon against TBXAS1•CYP11B2 (CYP2E1 the slower) [1] [fold] |
| --- | --- | --- | --- | --- | --- | --- |
| B1 | 690 | – | – | – | – | – |
| B2 | 430 | 2.5 | 5 | 2 | 15 | 10 |
